Data set [1] has as its target Actin purified from rabbit muscle (rabbit) (UniProt P68135). As to the kind of experiment: depolymerisation of single filaments in a microfluidic flow (fluorescence microscopy); filaments grown from MgATP-actin, depolymerised in F-buffer (pH 7.8, 100 mM KCl, 1 mM MgCl2); velocities from an exponential fit of 1/vdepol against the age of F-actin, and from a direct fit of length against time; room temperature.

For data set [2] the target is unchanged. Nature of the data set: depolymerisation of single filaments in a microfluidic flow (fluorescence microscopy); MgADP-actin filaments depolymerising at different profilin concentrations; saturation curve of the off-rate fitted assuming profilin in rapid equilibrium with the barbed end; room temperature.
The target is the same in data set [3]. As to the kind of experiment: depolymerisation of single filaments in a microfluidic flow (fluorescence microscopy); CrATP-actin filaments (as ADP-Pi-actin) depolymerising at different profilin concentrations; saturation curve of the off-rate fitted assuming profilin in rapid equilibrium with the barbed end; room temperature.
Data set [4] has as its system P68135. As to the kind of experiment: depolymerisation of single filaments in a microfluidic flow (fluorescence microscopy); filaments grown from MgATP-actin, depolymerised in F-buffer (pH 7.8, 100 mM KCl, 1 mM MgCl2); velocities from an exponential fit of 1/vdepol against the age of F-actin, and from a direct fit of length …. Particulars: other: depolymerisation of single filaments in a microfluidic flow (fluorescence microscopy).

Take “Actin purified from rabbit muscle (from UniProt P68135 1-377) (natural protein)”: in data set [1], the depolymerization velocity of ADP-actin subunits at the barbed end (direct fit of length against time) worked out at 6 subunits/s and the depolymerization velocity of ADP-actin subunits at the barbed end (exponential fit) came out at 6.2 subunits/s.
Regarding “profilin-actin (from UniProt P62962 1-140; P68135 1-377) (complex)”, the koff in data set [2] came out at 51.6 s⁻¹; in data set [3], 4.7 s⁻¹.
Regarding Actin purified from rabbit muscle, in data set [4], the “global depolymerization velocity of ADP-Pi-actin subunits at the barbed end (direct fit of length against time)” value came to 1.5 subunits/s; the “global depolymerization velocity of ADP-Pi-actin subunits at the barbed end (dissociation as ADP-Pi-actin, or Pi release and then dissociation; exponential fit)” value is 1.5±0.4 subunits/s.

By koff is commonly meant a measure of how fast the partners let go of each other. Lower therefore signals slow dissociation.

(Values after article PMC3181223.)
